Reference: patent publication US7871610B2, “Antibodies to Tie1 ectodomain” (Dyax Corp., priority 2003, dated 2011)

Tested on: HUVEC
Assay: Tube formation assay with HUVEC in collagen gel
Format: cell-based, human
Settings: collagen I gel; E3 active even at 10 ng/ml (tested 1 ng/ml to 10 μg/ml); E3b-IgG1 tested 1 pg/ml to 10 ng/ml
Protocol: Human Umbilical vein endothelial cells (HUVEC) were obtained by treating fresh human umbilical cord veins with Trypsin-EDTA (1×) (Gibco/Invitrogen) for 20-25 minutes at 37° C. The cells were cultured in a T-25 flask coated with attachment factor (AF), (Cascade Biologics) in RPMI 1640 medium supplemented with 10% FCS, 0.4% BBE, 1% 1-glutamin, 1% penicillin/streptomycin. Primary cultures were detached with warm Trypsin-EDTA and used when confluent at the second or third passage. The cells were maintained in a proliferative state by culturing them in a split ratio 1:2 at an approximate density of the monolayer of about 60-80%. […]
After 2 passages HUVECs were seeded in their culture medium (40.10^3/50 μl/well of a 96-well plate) on a collagen gel (50 μl of collagen I 1.5 mg/ml) prepared by mixing 7.5 volumes of 2 mg/ml collagen (Collagen R; Serva, Heidelberg, Germany), 1 volume of 10×MEM, 1.5 volume of NaHCO3 (15.6 mg/ml) and ˜1 volume of NaOH to adjust the pH to 7.4. […] The total length of the tube network on the culture surface was quantified at ×40 magnification by the METAVUE™ Software (Universal Imaging Corporation). Results from triplicate wells were expressed as mean vessel area per field ±SEM (relative units). […]
Germlined E3 and its parental antibody were evaluated in the tube formation assay in a collagen type-I matrix. […]

B1: E3: human anti-Tie1 antibody from Fab phage library; HC SEQ ID NO:114, LC SEQ ID NO:116 (antibody, V domains shown)
VH: EVQLLESGGGLVQPGGSLRLSCAASGFTFSMYGMVWVRQAPGKGLEWVSVISPSGGNTGYADSVKGRFTISRDNSKNTLYLQVNSLRAEDTAVYYCARAPRGYSYGYYYWGQGTLVTVSSASTKGPSVFPLAPSSKSTSGG
VL: DIQMTQSPLSLSASVGDRVTITCRASQGIGHYLAWYQQKPGKVPKLLIYTASTLQSGVPSRFSGSGSGTDFTLTINSLQPEDVATYYCQQFNSYPHTFGQGTRLDIK
modifications: Synthetically generated peptide
With B1 as the molecule, how does the “tube formation by HUVECs” value read?
Its value is “potent inhibitor of tube formation”.
